Laboratory results taken from patent publication US20250026849A1 (ARCELLX, published 2025).
Where a chain is given by its changes, count along the chain named.

T1: BCMA (Homo sapiens (Human), UniProt Q02223 1-54, limits assumed)
T1 sequence: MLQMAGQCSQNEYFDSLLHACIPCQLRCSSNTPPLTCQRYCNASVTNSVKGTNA

B1: D-domain SEQ ID NO: 287 (designed binder)
chain: MGSWVNFKYKLAIIKYMLEALGGSEAELAFFEDWIAEFERTLQQYKGKGNPEVEALRKEAAAIRDELQAYRHN
B2: D-domain SEQ ID NO: 288 (designed binder)
chain: B1 chain with V5S, K10R, I13V, E37D, R40L, T41H, Q44V
B3: D-domain SEQ ID NO: 289 (designed binder)
chain: B1 chain with V5T, I13V, Y16F, E37G, R40I, T41D, Q44N
B4: D-domain SEQ ID NO: 290 (designed binder)
chain: B1 chain with V5T, N6G, K10R, Y16F, D33Q, E37D, R40N, T41E, Q44Y
B5: D-domain SEQ ID NO: 291 (designed binder)
chain: B1 chain with V5H, K10R, Y16F, F30W, D33N, E37D, R40D, T41S, Q44D
B6: D-domain SEQ ID NO: 292 (designed binder)
chain: B1 chain with V5F, N6A, Y9H, K10R, I13V, D33H, E37Q, R40H, T41D
B7: D-domain SEQ ID NO: 293 (designed binder)
chain: MGSWYEFKHRLAVIKYMLEALGGSEAELAFFENWIAQFEHELQTYKGKGNPEVEALRKEAAAIRDELQAYRHN
B8: D-domain SEQ ID NO: 294 (designed binder)
chain: B1 chain with V5Y, N6K, Y9H, I13V, F30W, D33E, R40V, Q44D
B9: D-domain SEQ ID NO: 295 (designed binder)
chain: MGSWFYFKQKLAFIKWYLEALGGSEAELANFEIYIAEFEVMLQQYKGKGNPEVEALRKEAAAIRDELQAYRHN
B10: D-domain SEQ ID NO: 296 (designed binder)
chain: MGSWFSFKHHLAVIKWNLEALGGSEAELASFEEQIAEFESVLQAYKGKGNPEVEALRKEAAAIRDELQAYRHN
B11: D-domain SEQ ID NO: 297 (designed binder)
chain: MGSWGNFKYRLAIIKFHLEALGSSEAELATFEAWIANFESMLQNYKGKGNPEVEALRKEAAAIRDELQAYRHN
B12: D-domain SEQ ID NO: 304 (designed binder)
chain: MGSWSYFKYGLATIKEKLEALGGSEAELADFETWIAMFEKQLQEYKGKGNPEVEALRKEAAAIRDELQAYRHN
B13: D-domain SEQ ID NO: 298 (designed binder)
chain: B12 chain with T13I, E16I, K17R, T33R, M37A, K40H, Q41D, E44Y
B14: D-domain SEQ ID NO: 299 (designed binder)
chain: B12 chain with Y9F, T13H, E16L, K17R, T33Q, M37S, K40E, E44T
B15: D-domain SEQ ID NO: 300 (designed binder)
chain: B12 chain with Y9W, T13H, E16L, K17R, T33F, M37E, K40G, Q41L, E44D
B16: D-domain SEQ ID NO: 301 (designed binder)
chain: B12 chain with S5I, T13H, E16T, K17R, T33Q, M37E, Q41M, E44D
B17: D-domain SEQ ID NO: 302 (designed binder)
chain: B12 chain with S5G, E16H, K17R, T33L, M37K, K40E, E44V
B18: D-domain SEQ ID NO: 303 (designed binder)
chain: B12 chain with S5E, E16M, K17H, T33H, M37H, K40H, E44M
B19: D-domain SEQ ID NO: 305 (designed binder)
chain: B12 chain with S5H, Y9N, T13I, T33I, K40M, Q41E
B20: D-domain SEQ ID NO: 306 (designed binder)
chain: B12 chain with S5Q, T13I, E16I, T33A, M37T, E44H
B21: D-domain SEQ ID NO: 307 (designed binder)
chain: B12 chain with S5V, Y9H, T13V, E16M, K17R, M37Q, K40M, Q41T
B22: D-domain SEQ ID NO: 308 (designed binder)
chain: B12 chain with S5V, T13V, M37E, K40F, Q41G, E44Q
B23: D-domain SEQ ID NO: 309 (designed binder)
chain: B12 chain with S5Y, T13V, E16G, M37K, K40N, Q41H, E44S
B24: D-domain SEQ ID NO: 310 (designed binder)
chain: B12 chain with S5T, T13L, E16Y, K17R, T33E, M37Q, K40V, Q41S, E44H
B25: D-domain SEQ ID NO: 311 (designed binder)
chain: B12 chain with S5D, T13L, E16I, T33V, M37Q, K40M, Q41A, E44V
B26: D-domain SEQ ID NO: 312 (designed binder)
chain: B12 chain with S5T, Y9F, T13H, E16D, K17S, T33Q, K40Q, Q41D, E44V
B27: D-domain SEQ ID NO: 314 (designed binder)
chain: MGSWGYFKTGLAIIKAQLEALGGSEAELADFELWIAQFEETLQFYKGKGNPEVEALRKEAAAIRDELQAYRHN
B28: D-domain SEQ ID NO: 313 (designed binder)
chain: B27 chain with T9H, I13H, A16S, Q17S, L33V, Q37A, E40N, T41E, F44E
B29: D-domain SEQ ID NO: 315 (designed binder)
chain: MGSWAYFKYGLAVIKLHLEALGGSEAELADFERYIAEFEYELQAYKGKGNPEVEALRKEAAAIRDELQAYRHN
B30: D-domain SEQ ID NO: 316 (designed binder)
chain: MGSWLDFKEGLADIKRSLEALGGSEAELADFEGVIALFEWKLQTYKGKGNPEVEALRKEAAAIRDELQAYRHN
B31: D-domain SEQ ID NO: 317 (designed binder)
chain: MGSWEVFKHELAVIKDYLEALGGSEAELAHFEWGIAWFEGFLQDYKGKGNPEVEALRKEAAAIRDELQAYRHN
B32: D-domain SEQ ID NO: 318 (designed binder)
chain: MGSWIVFKQSLAWIKEHLEALGGSEAELAEFEFYIANFEHTLQNYKGKGNPEVEALRKEAAAIRDELQAYRHN
B33: D-domain SEQ ID NO: 319 (designed binder)
chain: B32 chain with V6Y, Q9D, W13Y, E16K, H17Y, E30T, F33Y, T41E, N44Y
B34: D-domain SEQ ID NO: 320 (designed binder)
chain: MGSWDHFKYNLAWIKKYLEALGGSEAELATFEWYIANFEKRLQDYKGKGNPEVEALRKEAAAIRDELQAYRHN
B35: D-domain SEQ ID NO: 321 (designed binder)
chain: MGSWFTFKQNLAWIKLHLEALGGSEAELARFEYYIADFENKLQLYKGKGNPEVEALRKEAAAIRDELQAYRHN
B36: D-domain SEQ ID NO: 322 (designed binder)
chain: MGSWREFKYGLAHIKRVLEALGGSEAELAVFEYYIAKFEQELQEYKGKGNPEVEALRKEAAAIRDELQAYRHN
B37: D-domain SEQ ID NO: 323 (designed binder)
chain: B36 chain with R5I, E6Q, V17T, Y33W, K37D, E41Q, E44G
B38: D-domain SEQ ID NO: 324 (designed binder)
chain: B36 chain with R5V, Y9H, G10N, H13W, R16V, V17T, K37Q, Q40E, E41Q
B39: D-domain SEQ ID NO: 325 (designed binder)
chain: MGSWISFKDNLAMIKEFLEALGGSEAELAVFEWYIATFEVELQDYKGKGNPEVEALRKEAAAIRDELQAYRHN
B40: D-domain SEQ ID NO: 326 (designed binder)
chain: B39 chain with I5H, S6I, M13T, E16A, T37K, V40E, D44G
B41: D-domain SEQ ID NO: 327 (designed binder)
chain: MGSWTSFKHGLAGIKRVLEALGGSEAELATFEWYIAQFERHLQAYKGKGNPEVEALRKEAAAIRDELQAYRHN
B42: D-domain SEQ ID NO: 328 (designed binder)
chain: MGSWQSFKHALADIKINLEALGGSEAELAQFEYAIAVFEYRLQAYKGKGNPEVEALRKEAAAIRDELQAYRHN
B43: D-domain SEQ ID NO: 329 (designed binder)
chain: B42 chain with Q5H, S6T, H9E, D13Q, I16G, N17E, Q30S, A44M
B44: D-domain SEQ ID NO: 330 (designed binder)
chain: MGSWTDFKTSLADIKAELEALGGSEAELAKFEYYIAIFEYRLQEYKGKGNPEVEALRKEAAAIRDELQAYRHN
B45: D-domain SEQ ID NO: 331 (designed binder)
chain: MGSWTNFKEGLAEIKRDLEALGGSEAELARFEYVIAVFEFRLQNYKGKGNPEVEALRKEAAAIRDELQAYRHN
B46: D-domain SEQ ID NO: 332 (designed binder)
chain: B45 chain with T5H, N6T, E9D, R16S, D17E, R30M, V37I, F40Y
B47: D-domain SEQ ID NO: 333 (designed binder)
chain: MGSWQFFKEHLASIKFWLEALGGSEAELAFFEDAIADFEYHLQNYKGKGNPEVEALRKEAAAIRDELQAYRHN
B48: D-domain SEQ ID NO: 334 (designed binder)
chain: B47 chain with Q5T, F6Y, D37E, Y40K, H41D, N44Y
B49: D-domain SEQ ID NO: 335 (designed binder)
chain: MGSWIIFKGYLAHIKHHLEALGGSEAELADFEFYIAIFEMELQKYKGKGNPEVEALRKEAAAIRDELQAYRHN
B50: D-domain SEQ ID NO: 336 (designed binder)
chain: MGSWYLFQSHLAHIKHHLEALGGSEAELAWFEFTIAGFEQELQHYKGKGNPEVEALRKEAAAIRDELQAYRHN
B51: D-domain SEQ ID NO: 337 (designed binder)
chain: MGSWYSFKWTLARIKLELEALGGSEAELAYFENVIAHFEMELQSYKGKGNPEVEALRKEAAAIRDELQAYRHN
B52: D-domain SEQ ID NO: 338 (designed binder)
chain: MGSWTTLKWRLAHIKQHLEALGGSEAELALFEYDIAHFEELLQYYKGKGNPEVEALRKEAAAIRDELQAYRHN

Biological target: T1, BCMA
Test: ELISA, format not described
Parameters: unit not given here

ELISA_avg	Binder
7.39	B1
9.34	B2
11.4	B3
13.9	B4
13.6	B5
12	B6
3.71	B7
4.54	B8
7.23	B9
6.45	B10
22.7	B11
18.1	B12
13.3	B13
18.4	B14
17.6	B15
21.1	B16
14	B17
18.4	B18
19.9	B19
10.3	B20
21.4	B21
17.6	B22
3.84	B23
15.2	B24
15.8	B25
17	B26

ELISA_avg	Binder
12.8	B27
18.5	B28
13.4	B29
3.03	B30
9.33	B31
10.6	B32
3.2	B33
9.81	B34
14.2	B35
14.7	B36
8.36	B37
15.8	B38
7.16	B39
3.47	B40
9.77	B41
13.7	B42
6.76	B43
18.8	B44
12.3	B45
10.7	B46
10.6	B47
6.6	B48
5.18	B49
7.69	B50
4.05	B51
17.8	B52
